We go through three substances from PMC10009750, “Development of Selective ADAMTS-5 Peptide Substrates to Monitor Proteinase Activity” (Journal of Medicinal Chemistry, 2023).

Non-standard residues stand in square brackets, D forms with d. No end group written: not given here. Tyr(3-NO2) = N[C@@H](Cc1ccc(O)c([N+](=O)[O-])c1)C(=O)O; 2Abz = Nc1ccccc1C(=O)O

Format in all cases: biochemical
One experiment addresses T1, TS4-4 (ADAMTS-4) (Homo sapiens, UniProt O75173).
T1 construct: TS4-4, TS5-5 = catalytic and disintegrin domains; made in house; host or cells: HEK293 cells (previously transfected stocks)
T1 sequence (O75173 213-519 limits assumed): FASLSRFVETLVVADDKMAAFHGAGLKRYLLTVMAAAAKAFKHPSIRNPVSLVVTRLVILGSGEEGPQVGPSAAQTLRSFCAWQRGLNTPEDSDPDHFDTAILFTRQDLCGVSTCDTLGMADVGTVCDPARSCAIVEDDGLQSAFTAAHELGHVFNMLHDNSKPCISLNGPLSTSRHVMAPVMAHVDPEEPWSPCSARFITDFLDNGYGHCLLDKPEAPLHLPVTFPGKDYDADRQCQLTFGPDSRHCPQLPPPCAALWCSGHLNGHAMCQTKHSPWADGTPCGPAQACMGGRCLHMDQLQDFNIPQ
Put plainly: Selectivity studies: cleavage of FRET peptide substrates by TS4-4. The note with it: substrate 20 μM; for preference (selectivity) for TS5-5 over TS4-4: ratio of cleavage rates; for rate of cleavage by TS4-4: TS4-4 50–90 nM, mean of 3–4 independent experiments in triplicate. The procedure: (§1) All proteinase assays were performed at 37 °C in a SpectraMax M5 spectrophotometer (Molecular Devices, San Jose, USA) using a 96-well black microplate (Greiner bio-one, Stonehouse, UK) unless otherwise stated. […] N-TIMP-3 was purified as described previously[30] and CT-1746 was a gift from Dr. Yoshifumi Itoh (Kennedy Institute of Rheumatology, University of Oxford). All analyses were carried out using Prism 9 software (GraphPad, La Jolla, CA, USA).
(§2) Selectivity studies are described for Abz-TESE↓SRGAIY-Dpa-KK-NH2, the library parent peptide 3, and hit peptides 18–26. A solution of Abz-TESE↓SRGAIY-Dpa-KK-NH2 (22.22 μM) in freshly prepared TNC buffer with 0.005% (v/v) Brij-35 (90 μL) was added to a 96-well clear bottom microplate (Greiner bio-one, Stonehouse, UK) in triplicate. A substrate-only background control was also added in triplicate (90 μL). The resultant solutions were incubated at 37 °C (30 min). An ADAMTS or MMP proteinase was added to substrate wells (10 μL) to give a final proteinase concentration of either 50–90 nM (TS4-4), 25–200 nM (TS5-5), 5–10 nM (MMP-2ΔC), 30 nM (MMP-9ΔC), 92 nM (MMP-1), or 3 μM (MMP-3). TNC buffer with 0.005% (v/v) Brij-35 was added to substrate-only control wells (10 μL). The relative fluorescence intensity was measured at 37 °C for 1 h with readings every 20 s. Activity was read from underneath the microplate, which was covered with a low evaporation lid. […] For each ADAMTS and MMP proteinase, the assay was performed 2–4 times. […] Final rates were expressed as a percentage of substrate cleavage by TS5-5 (mean ± SEM) or in μM s^–1 μM^–1 of proteinase.

The test system of experiment [1] is MMP-9ΔC (catalytic domain of MMP-9). Put plainly: Selectivity studies: cleavage of FRET peptide substrates by MMP-9ΔC. The note with it: ratio of cleavage rates, substrate 20 μM. The procedure: as §1, §2
Another experiment addresses T2, TS5-5 (ADAMTS-5) (Homo sapiens, UniProt Q9UNA0).
T2 construct: ADAMTS-5 (i.e. TS5-5, residues 264–555); FLAG; made in house; host or cells: HEK293 cells (previously transfected stocks)
T2 sequence (Q9UNA0 264-555): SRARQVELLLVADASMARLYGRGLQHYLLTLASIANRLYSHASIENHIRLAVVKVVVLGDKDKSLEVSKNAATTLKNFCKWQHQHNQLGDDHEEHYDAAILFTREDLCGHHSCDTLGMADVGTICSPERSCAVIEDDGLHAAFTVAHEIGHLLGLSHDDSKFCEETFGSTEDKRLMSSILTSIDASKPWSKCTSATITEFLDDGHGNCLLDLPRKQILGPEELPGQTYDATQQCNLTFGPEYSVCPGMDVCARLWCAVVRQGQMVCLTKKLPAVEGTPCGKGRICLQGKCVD
Put plainly: Sensitivity studies with TS5-5. The note with it: 37 °C; for ΔRFU after 20 h: single experiment in triplicate; for lowest ADAMTS-5 concentration at which activity is detected: 5 μM substrate, experiments performed for ∼20 h. The procedure: Abz-TESE↓SRGAIY-Dpa-KK-NH2, library parent peptide 3 and hit peptide 26 (5 mM) were each diluted to two concentrations (5.56 μM and 2.78 μM) in freshly prepared TNC buffer with 0.005% (v/v) Brij-35. The two concentrations for each substrate (90 μL) were added to a 96-well black microplate in triplicate. A substrate-only background control was also added in triplicate (90 μL). The resultant solutions were incubated at 37 °C (20 min). TS5-5 proteinase was thawed from −20 °C and made up at the following concentrations in TNC buffer with 0.005% (v/v) Brij-35:10, 5, 2.5, and 1.25 nM. Each concentration of proteinase was added to substrate wells (10 μL), with buffer added to substrate-only control wells (10 μL). The relative fluorescence intensity was measured at 37 °C for 24 h, with readings every 2 min.

The mark [2] stands for this setting: TNC buffer with 0.005% (v/v) Brij-35, 37 °C.

On to “Abz-TESE↓SRGAIY-Dpa-KK-NH2 [current, ortho-aminobenzoyl(Abz)-TESE↓SRGAIY-N-3-[2,4-dinitrophenyl]-L-2,3-diaminopropionyl(Dpa)-KK-NH2, reference compound]”, for which, on TS4-4 (ADAMTS-4), the “preference (selectivity) for TS5-5 over TS4-4” value is on record as ~5 fold. For the same substance, the “cleavage by TS4-4 as a fraction (percentage) of TS5-5 cleavage of the current substrate” value at TS4-4 (ADAMTS-4) (TNC buffer with 0.005% (v/v) Brij-35, 37 °C, mean of 2–8 independent experiments in triplicate) is on record as 22%. Moreover, on TS4-4 (ADAMTS-4) (setting [2]), the “rate of cleavage by TS4-4” value was found to be 0.090 μM s^–1 μM^–1. For the same substance, in experiment [1], the “preference (selectivity) for TS5-5 over MMP-9ΔC” value was ~213 fold. Also, the “ΔRFU after 20 h” value at TS5-5 (ADAMTS-5) (0.25 nM TS5-5, substrate 5 μM) is given as “no longer able to detect TS5-5 activity above background fluorescence”; at TS5-5 (ADAMTS-5) (0.5 nM TS5-5, substrate 5 μM) it was 59; at TS5-5 (ADAMTS-5) (1 nM TS5-5, substrate 5 μM) it was > 100.
For “KY(NO2)TESESRGK(Abz)IYYKKG (K[Tyr(3-NO2)]TESESRGK(Abz)IYYKKG) [Compound 3]”, the “preference (selectivity) for TS5-5 over TS4-4” value in the experiment with TS4-4 (ADAMTS-4) was ~16 fold. Further, the “rate of cleavage by TS4-4” value in the experiment with TS4-4 (ADAMTS-4) (setting [2]) was 0.08–0.10 μM s^–1 μM^–1. In addition, in experiment [1], the “preference (selectivity) for TS5-5 over MMP-9ΔC” value is reported as ~2561 fold. The “ΔRFU after 20 h” value with TS5-5 (ADAMTS-5) (0.25 nM TS5-5, substrate 5 μM) is given as > 30; in the experiment with TS5-5 (ADAMTS-5) (0.5 nM TS5-5, substrate 5 μM), > 100; in the experiment with TS5-5 (ADAMTS-5) (1 nM TS5-5, substrate 5 μM), > 100. In the experiment with TS5-5 (ADAMTS-5), the “lowest ADAMTS-5 concentration at which activity is detected” value was 0.25 nM.
In the case of “KY(NO2)SENESRGK(Abz)IYYKKG (K[Tyr(3-NO2)]SENESRGK(2Abz)IYYKKG) [Compound 26]”, the “preference (selectivity) for TS5-5 over TS4-4” value with TS4-4 (ADAMTS-4) is ~13 fold. For the same substance, the “rate of cleavage by TS4-4” value with TS4-4 (ADAMTS-4) (setting [2]) is reported as 0.08–0.10 μM s^–1 μM^–1. In addition, in experiment [1], the “preference (selectivity) for TS5-5 over MMP-9ΔC” value is ~548 fold. The “ΔRFU after 20 h” value with TS5-5 (ADAMTS-5) (0.25 nM TS5-5, substrate 5 μM) is listed as > 30; in the experiment with TS5-5 (ADAMTS-5) (0.5 nM TS5-5, substrate 5 μM), > 100; in the experiment with TS5-5 (ADAMTS-5) (1 nM TS5-5, substrate 5 μM) it was > 100. For the same substance, in the experiment with TS5-5 (ADAMTS-5), the “lowest ADAMTS-5 concentration at which activity is detected” value was determined as 0.25 nM.
